Measurements: the RNAGym collection of RNA variant scans (doi:10.1073/pnas.2313332121)

B1: TPR t1 (parent)
chain: GACCAAUCUGCCCUCAGAGCUCGAGAACAUCUUCGGAUGCAGAGGAGGCAGGCUUCGGUGGCGCGAUAGCGCCAACGUCCUCAACCUCCAAUGCAUCCCACCACAUGAUGAUGCCUGAAGAGCCUUGGUUUUUUG

Variants of: B1
Assay: polymerase ribozyme fitness, log enrichment relative to wild type (log ratio); higher = more active; in vitro selection for triplet polymerase activity
Procedure, shortened: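 Libraries of mutants in each subunit of a heterodimeric triplet polymerase ribozyme were generated by PCR and transcribed. In triplicate, each went through one in vitro selection round: annealing with biotinylated primer, partner subunit and triplets; frozen incubation at −7 °C; gel excision of extended constructs; streptavidin-bead capture; RT-PCR. Fitness, taken from Illumina sequencing of input and output libraries, is the logarithm of a genotype's enrichment over wild-type enrichment, averaged across replicates with inverse-variance weights. The logarithm is base 2, and genotypes needed ≥10 input reads and ≥1 read per output to be kept.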

| Variant | polymerase ribozyme fitness (log ratio) |
| --- | --- |
| GACCAAUCUGCCCUCAGAGCUCGAGAACAUCUUCGGGUGCAGAGGAGGAAGGCUUAGGUGGCGCGAUAGCGCCAACGUCCUCAACCUCCAAUGCAUCCCACCACAUGAUGAUGCCUGAAGAGCCUUGCUUUUUUG [A37G C49A C56A G128C] | -3.61 |
| GACCAAUCUGCCCUCAGAGCUCGAGAACAUCUUCGGAUGCAGAGGAGGCAGGCUUCGGUGGCGCGAUAGCGCCAACGUCCUCAACCUCCAAUACAUCCCACCACAUGAUGAUGCCUGAAUAGCCUUGGUUUUUUG [G93A G120U] | -0.0719 |
| GACCAAUCUGGCCUCAGAGCUCGAGAACAUCUUCGGAUGCAGAGGAGGCAGGCUUCGGUGGCGCGAUAGCGCCAACGUCCUCAACCUCCAAUGCAACCCACCACAUGAUGAUGCCUGAAGAGCCUUGGGUUUUUG [C11G U96A U129G] | -2.87 |
| GACCAAUCUGCCCUCAGAGCUCGAGAACAUCUUCGGAUGCAUAGGAGGCAGGGUUAGGUGGCGCGAUAGCGCCAACGUCCUCAACCUCCAAUGCAUCCCACCACAUGAUGAUGCCUGAAGAGCCUUGGUUUUUUG [G42U C53G C56A] | -1.17 |
| GACCAAUGUGCCCUCAGAGCUCGAGAGCAUCUUCGGAUGCAGAGGAGGCAGGCUUCGGUGGCGCGAUAGCGCCAACGUCCUCAACCUCCAAUUCAUCCCACCAAAUGAUGUUGCCUGAAGAGCCCUGGUUUUUUG [C8G A27G G93U C104A A111U U125C] | -4.25 |
| GACCAAUCUGCCCUCAGAGCUCGAGAACAUCUUCGGAUGCAGAGGCGGCAGGCUUCGGUGGCGCGAUAGCGCCAACGUCCUCAACCUCCAAUGCAUCCCACCACAUGAUGAUGCCUGAACAGCCUUGGUUUUUUG [A46C G120C] | 1.36 |
| GACCAAUCUGCUCUCAGAGCUCGAGAACAUCUUCGGAUGCAGAGGAGGCAAGCUUCGGUGGCGCGAUAGCGCCAACGUUCUCAACCUCCAAUGCAUCCCAACACAUGAUGAUGCCUGAAGAGCCUUGGUUUUUUG [C12U G51A C79U C101A] | -3.78 |
| GACCAAUCUGCCCUCAGAGCUCGAGAACAUCUUCGGAUGCAGAGGAGGCAGGCUUCGGAGGCGCGAUAGCGCCAACGUCCUUAACCUCCAAUGCAUCCCACCACAUGAUGAUGCCUGAAGAGCCUUGGUUUUUUG [U59A C82U] | -0.407 |
| GACCAAUCUGCCUUCAGAGCUCGAGAUCAUCUUCGGAUGCAGAGGAGGCAGGCUUCGGUGGCGCGAUAGCGCCAACGUCCUCAACCUCCAAUGCAUCCCACCACAUGAUGAUGCCUGAAGAGCCUUGGUUUUUUG [C13U A27U] | -2.33 |
| GACCAAUCUGCCCUCAGAGCUCGAGAACAUCUUCGGAUGCAGAGGAGGCAGGCUUCGGUGGCGCGAUAGCUCCAACGUCCUCAACCUCCAAUGCAUCCCACCACAUGAUGAUGCCUGAAGAGCCUUGGUUUUGUG [G71U U133G] | 0.225 |
| GACUAAUCUGCCCUCAGAGCUCGAGAACAUCUUCGGAUGCAGAGGAGGCAGUCUUCGGUGGCGCGAUAGCGCCAACGUCCUCAACCUCCAAUGCAUCCCACCACAUGAUGAUGCCUGAAGAGCCUUGCUUAUUUG [C4U G52U G128C U131A] | -3.4 |
| GACCAAUCUGCCCUCAGAGCUCGAGAACAUCUUCGGAUGCAGAGGAGGCAGGCUUCGGUAGCGCGAUAGCGCCAACGUCCUCAACCGCCAAUGCAUCCCACGACAUGAUGAUACCUGAAGAGCCUUGGUUUUUUG [G60A U87G C102G G113A] | -6.32 |
| GACCAAUCUGCCCUCAGAGCUCGAGAACAUCUUCGGAUGCAGAGGAGGGAGGCUUCGGUGGCGCGAUAGCGCCAACGUCCUCAACCUCCAAAGCAUCCCACCACAUGAUGAUGCCUGAAGAGGCUUGGUUUUUUG [C49G U92A C123G] | -3.27 |
| GACCAAUAUACCCUCAGAGCUCGAGAACAUCUUCGGAUGCAGAGGAGGCAGGCUUCGGUGGCGCGAUAGCGCCAACGUCCUCAACUUCCAAUGCAUCCCACCACAUGAUGAUGCCUGAACAGCCUUGGUUUUUUG [C8A G10A C86U G120C] | 1.44 |
| GACCAAUCUGCCCUCAGAGCUCGAGAACAUCUUCGGAUGCAGAGGAGGCAGGCUUCGGUGGCGCGAUAGCGCCAACGUCCUCAACCUCCAAUGCAUCCCACCACAUGAUGAUACCUGAAGAGCCAUGGUUUUUUG [G113A U125A] | -1.24 |
| GACCAAUCUGCCCUCAGAACUCGAGAACAUCUUCCGAUGCAGAGGAGGCAGGGUUCGGUGGCGCGAUAGCGCCAACGUCCUCAACCUCCAAUGCAUCCCACCACAUGAUGAUGGCUGAAGAGCCUUGGUUUUUUG [G19A G35C C53G C114G] | -6.59 |
| GCCCAAUCUGCCCUCAGAGCUCGAGAACAUCUUCGGAUGCAGAGGAGGCAGGCUUCGGUGGCGCGAUAACGCCAACGUCCUCAACCUCCAAUGCAUCCCACCACAUGAUGAUGCCUGAAGAGCCUUGGUUUUUUG [A2C G69A] | -3.57 |
| GACCAAUCUGCCCUCAGAGCUCGAGAACAUCUUCGGAUGCAGAGGAGGCAGGCUUCGGUGGCGCGAUAGCGCCAACGUCCUUAACCUCCAAUGCAUACCACCACAUGAUGAUGCCUGAAGAGCCUUGGUUUUUUG [C82U C97A] | -4.95 |
| GACCGAUCUGCCCUCAGAGCUCGAGCACAUCUUCGGAUGCAGAGGAGGCAGGCUUCGGUGGCGCGAUAGCGUCAACGUCCUCAACCACCAAUGCAUCCCACCACAUGAUGAUGCCUGAAUAGCCUUGGUAUUUUG [A5G A26C C72U U87A G120U U130A] | -3.99 |
| GACCAAUCUGCCCUCAGAGCUCGAGAACAUCUUCGGAUGCAGAGGAAGCAGGCUUCGGUUGCGCGAUAGCGCCAACGUCCUCAACCUCCAAUGCAUCCCACCACAUGAUGAUGCCUGAAGAGCCUUGGUUUUUUG [G47A G60U] | -0.146 |
| GACGAAUCUGCCCUCAGAGCUCGAGAACAUCUUCGGAUGCAGAUGAGGCAGGCUUCGGUGGCGCGAUAGCGCCAACGGCCUCAACCUCCAAUGCAGCCCACCACACGAUGAUGCCUGAAGAGCCUUGGUUUUUUG [C4G G44U U78G U96G U106C] | -4.97 |
